# Patent US20040087777A1 (NEURALAB, published 2004)
# T1: … analog, Residue 2 = F
# T1 peptide: DFEFRHDSGY
# T2: … analog, Residue 3 = P
# T2 peptide: DAPFRHDSGY
# T3: … analog, Residue 1 = P
# T3 peptide: PAEFRHDSGY
# T4: … analog, Residue 1 = R
# T4 peptide: RAEFRHDSGY
# T5: … analog, Residue 1 = I
# T5 peptide: IAEFRHDSGY
# T6: … analog, Residue 8 = H
# T6 peptide: DAEFRHDHGY
# T7: … analog, Residue 2 = I
# T7 peptide: DIEFRHDSGY
# T8: … analog, Residue 8 = C
# T8 peptide: DAEFRHDCGY
# T9: … analog, Residue 2 = T
# T9 peptide: DTEFRHDSGY
# T10: … analog, Residue 8 = R
# T10 peptide: DAEFRHDRGY
# T11: … analog, Residue 3 = C
# T11 peptide: DACFRHDSGY
# T12: … analog, Residue 1 = K
# T12 peptide: KAEFRHDSGY
# T13: … analog, Residue 2 = Q
# T13 peptide: DQEFRHDSGY
# T14: … analog, Residue 1 = M
# T14 peptide: MAEFRHDSGY
# T15: … analog, Residue 3 = Y
# T15 peptide: DAYFRHDSGY
# T16: … analog, Residue 1 = C
# T16 peptide: CAEFRHDSGY
# T17: … analog, Residue 1 = H
# T17 peptide: HAEFRHDSGY
# T18: … analog, Residue 2 = D
# T18 peptide: DDEFRHDSGY
# T19: … analog, Residue 1 = A
# T19 peptide: AAEFRHDSGY
# T20: … analog, Residue 3 = D
# T20 peptide: DADFRHDSGY
# T21: … analog, Residue 1 = G
# T21 peptide: GAEFRHDSGY
# T22: … analog, Residue 3 = M
# T22 peptide: DAMFRHDSGY
# T23: … analog, Residue 2 = N
# T23 peptide: DNEFRHDSGY
# T24: … analog, Residue 3 = Q
# T24 peptide: DAQFRHDSGY
# T25: … analog, Residue 3 = I
# T25 peptide: DAIFRHDSGY
# T26: … analog, Residue 1 = L
# T26 peptide: LAEFRHDSGY
# T27: … analog, Residue 1 = S
# T27 peptide: SAEFRHDSGY
# T28: … analog, Residue 2 = C
# T28 peptide: DCEFRHDSGY
# T29: … analog, Residue 3 = N
# T29 peptide: DANFRHDSGY
# T30: … analog, Residue 3 = W
# T30 peptide: DAWFRHDSGY
# T31: … analog, Residue 8 = P
# T31 peptide: DAEFRHDPGY
# T32: … analog, Residue 1 = E
# T32 peptide: EAEFRHDSGY
# T33: … analog, Residue 3 = L
# T33 peptide: DALFRHDSGY
# T34: … analog, Residue 2 = G
# T34 peptide: DGEFRHDSGY
# T35: … analog, Residue 1 = Y
# T35 peptide: YAEFRHDSGY
# T36: … analog, Residue 2 = H
# T36 peptide: DHEFRHDSGY
# T37: … analog, Residue 3 = H
# T37 peptide: DAHFRHDSGY
# T38: … analog, Residue 8 = N
# T38 peptide: DAEFRHDNGY
# T39: … analog, Residue 1 = W
# T39 peptide: WAEFRHDSGY
# T40: … analog, Residue 8 = K
# T40 peptide: DAEFRHDKGY
# T41: … analog, Residue 2 = K
# T41 peptide: DKEFRHDSGY
# T42: … analog, Residue 1 = N
# T42 peptide: NAEFRHDSGY
# T43: … analog, Residue 1 = F
# T43 peptide: FAEFRHDSGY
# T44: … analog, Residue 2 = R
# T44 peptide: DREFRHDSGY
# T45: … analog, Residue 3 = K
# T45 peptide: DAKFRHDSGY
# B1: humanized 3D6 version 2 (antibody, V domains shown)
# VH: EVQLLESGGGLVQPGGSLRLSCAASGFTFSNYGMSWVRQAPGKGLEWVASIRSGGGRTYYSDNVKGRFTISRDNSKNTLYLQMNSLRAEDTAVYYCVRYDHYSGSSDYWGQGTLVTVSS
# VL: DVVMTQSPLSLPVTPGEPASISCKSSQSLLDSDGKTYLNWLLQKPGQSPQRLIYLVSKLDSGVPDRFSGSGSGTDFTLKISRVEAEDVGVYYCWQGTHFPRTFGQGTKVEIK
# notes: also called humanized 3D6v2; h3D6v2
# Tests used:
# [1] = target: T1, … analog, Residue 2 = F; experiment: rNET
# Description: (§1) The rNET epitope map assay provides information about the contribution of individual residues within the epitope to the overall binding activity of the antibody. rNET analysis uses synthesized systematic single substituted peptide analogs. Binding of an antibody being tested is determined against native peptide (native antigen) and against 19 alternative “single substituted” peptides, each peptide being substituted at a first position with one of 19 non-native amino acids for that position. A profile is generated reflecting the effect of substitution at that position with the various non-native residues. Profiles are likewise generated at successive positions along the antigenic peptide. The combined profile, or epitope map, (reflecting substitution at each position with all 19 non-native residues) can then be compared to a map similarly generated for a second antibody.
# (§2) Antibodies were tested for binding against the native Aβ peptide [sequence] […] Residues 1-8 were systematically substituted with each of the 19 non-native residues for that position.
# [2] = target: T2, … analog, Residue 3 = P; experiment: rNET
# Description: as §1, §2
# [3] = target: T3, … analog, Residue 1 = P; experiment: rNET
# Description: as §1, §2
# [4] = target: T4, … analog, Residue 1 = R; experiment: rNET
# Description: as §1, §2
# [5] = target: T5, … analog, Residue 1 = I; experiment: rNET
# Description: as §1, §2
# [6] = target: T6, … analog, Residue 8 = H; experiment: rNET
# Description: as §1, §2
# [7] = target: T7, … analog, Residue 2 = I; experiment: rNET
# Description: as §1, §2
# [8] = target: T8, … analog, Residue 8 = C; experiment: rNET
# Description: as §1, §2
# [9] = target: T9, … analog, Residue 2 = T; experiment: rNET
# Description: as §1, §2
# [10] = target: T10, … analog, Residue 8 = R; experiment: rNET
# Description: as §1, §2
# [11] = target: T11, … analog, Residue 3 = C; experiment: rNET
# Description: as §1, §2
# [12] = target: T12, … analog, Residue 1 = K; experiment: rNET
# Description: as §1, §2
# [13] = target: T13, … analog, Residue 2 = Q; experiment: rNET
# Description: as §1, §2
# [14] = target: T14, … analog, Residue 1 = M; experiment: rNET
# Description: as §1, §2
# [15] = target: T15, … analog, Residue 3 = Y; experiment: rNET
# Description: as §1, §2
# [16] = target: T16, … analog, Residue 1 = C; experiment: rNET
# Description: as §1, §2
# [17] = target: T17, … analog, Residue 1 = H; experiment: rNET
# Description: as §1, §2
# [18] = target: T18, … analog, Residue 2 = D; experiment: rNET
# Description: as §1, §2
# [19] = target: T19, … analog, Residue 1 = A; experiment: rNET
# Description: as §1, §2
# [20] = target: T20, … analog, Residue 3 = D; experiment: rNET
# Description: as §1, §2
# [21] = target: T21, … analog, Residue 1 = G; experiment: rNET
# Description: as §1, §2
# [22] = target: T22, … analog, Residue 3 = M; experiment: rNET
# Description: as §1, §2
# [23] = target: T23, … analog, Residue 2 = N; experiment: rNET
# Description: as §1, §2
# [24] = target: T24, … analog, Residue 3 = Q; experiment: rNET
# Description: as §1, §2
# [25] = target: T25, … analog, Residue 3 = I; experiment: rNET
# Description: as §1, §2
# [26] = target: T26, … analog, Residue 1 = L; experiment: rNET
# Description: as §1, §2
# [27] = target: T27, … analog, Residue 1 = S; experiment: rNET
# Description: as §1, §2
# [28] = target: T28, … analog, Residue 2 = C; experiment: rNET
# Description: as §1, §2
# [29] = target: T29, … analog, Residue 3 = N; experiment: rNET
# Description: as §1, §2
# [30] = target: T30, … analog, Residue 3 = W; experiment: rNET
# Description: as §1, §2
# [31] = target: T31, … analog, Residue 8 = P; experiment: rNET
# Description: as §1, §2
# [32] = target: T32, … analog, Residue 1 = E; experiment: rNET
# Description: as §1, §2
# [33] = target: T33, … analog, Residue 3 = L; experiment: rNET
# Description: as §1, §2
# [34] = target: T34, … analog, Residue 2 = G; experiment: rNET
# Description: as §1, §2
# [35] = target: T35, … analog, Residue 1 = Y; experiment: rNET
# Description: as §1, §2
# [36] = target: T36, … analog, Residue 2 = H; experiment: rNET
# Description: as §1, §2
# [37] = target: T37, … analog, Residue 3 = H; experiment: rNET
# Description: as §1, §2
# [38] = target: T38, … analog, Residue 8 = N; experiment: rNET
# Description: as §1, §2
# [39] = target: T39, … analog, Residue 1 = W; experiment: rNET
# Description: as §1, §2
# [40] = target: T40, … analog, Residue 8 = K; experiment: rNET
# Description: as §1, §2
# [41] = target: T41, … analog, Residue 2 = K; experiment: rNET
# Description: as §1, §2
# [42] = target: T42, … analog, Residue 1 = N; experiment: rNET
# Description: as §1, §2
# [43] = target: T43, … analog, Residue 1 = F; experiment: rNET
# Description: as §1, §2
# [44] = target: T44, … analog, Residue 2 = R; experiment: rNET
# Description: as §1, §2
# [45] = target: T45, … analog, Residue 3 = K; experiment: rNET
# Description: as §1, §2
# [46] = target: T46, beta amyloid peptide (Aβ) (human, UniProt P05067 672-713, limits assumed); experiment: BIAcore
# T46 construct: also called A-beta; β-amyloid peptide
# 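Wherever OD is given: antibody binding measured against single-substituted peptide analogs, each epitope position replaced by every one of 19 non-native amino acids, compared with binding to the native Aβ peptide.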
binder,measurement,setting,value
B1,OD,[1],0.717 OD
same,OD,[2],0.02 OD
same,OD,[3],0.144 OD
same,OD,[4],0.155 OD
same,OD,[5],0.118 OD
same,OD,[6],0.683 OD
same,OD,[7],0.722 OD
same,OD,[8],0.7 OD
same,OD,[9],0.712 OD
same,OD,[10],0.699 OD
same,OD,[11],0.41 OD
same,OD,[12],0.057 OD
same,OD,[13],0.756 OD
same,OD,[14],0.072 OD
same,OD,[15],0.02 OD
same,OD,[16],0.628 OD
same,OD,[17],0.117 OD
same,OD,[18],0.222 OD
same,OD,[19],0.643 OD
same,OD,[20],0.027 OD
same,OD,[21],0.738 OD
same,OD,[22],0.027 OD
same,OD,[23],0.735 OD
same,OD,[24],0.406 OD
same,OD,[25],0.024 OD
same,OD,[26],0.148 OD
same,OD,[27],0.762 OD
same,OD,[28],0.694 OD
same,OD,[29],0.032 OD
same,OD,[30],0.304 OD
same,OD,[31],0.694 OD
same,OD,[32],0.7 OD
same,OD,[33],0.026 OD
same,OD,[34],0.72 OD
same,OD,[35],0.498 OD
same,OD,[36],0.741 OD
same,OD,[37],0.02 OD
same,OD,[38],0.7 OD
same,OD,[39],0.07 OD
same,OD,[40],0.698 OD
same,OD,[41],0.722 OD
same,OD,[42],0.757 OD
same,OD,[43],0.062 OD
same,OD,[44],0.719 OD
same,OD,[45],0.09 OD
same,Kd,[46],2.24 nM
